The source of these data is article PMC11387628.

One experiment concerns the target GFP-WIPI2b S68A (human). Nature of the experiment: co-IP; GFP-Trap of GFP-WIPI2b WT or mutants from lysates of transfected HEK293A or HEK293A WIPI2 KO cells (full medium or 2 h EBSS), 2 h at 4 °C; washed in TNTE wash buffer (50 mM Tris pH 7.5, 300 mM NaCl, 5 mM EDTA, 0.1% Triton-X100); endogenous ULK1, ATG13 and ATG16L1 detected by western blot. (A western blot detects proteins with antibodies after separation by electrophoresis.)

The target in another experiment is GFP-WIPI2b S68D (human). Described as above.

Regarding “endogenous ATG16L1 (from UniProt Q676U5 1-607) (natural protein)”, the figures for the percent reduction of binding compared to WIPI2b WT in the experiment with GFP-WIPI2b S68A (human) and with GFP-WIPI2b S68D (human) were 30% and more than 60%, respectively.
